T1: LINGO-1 ectodomain (human, UniProt Q96FE5 42-561)
T1 construct: also called Sp35
T1 sequence: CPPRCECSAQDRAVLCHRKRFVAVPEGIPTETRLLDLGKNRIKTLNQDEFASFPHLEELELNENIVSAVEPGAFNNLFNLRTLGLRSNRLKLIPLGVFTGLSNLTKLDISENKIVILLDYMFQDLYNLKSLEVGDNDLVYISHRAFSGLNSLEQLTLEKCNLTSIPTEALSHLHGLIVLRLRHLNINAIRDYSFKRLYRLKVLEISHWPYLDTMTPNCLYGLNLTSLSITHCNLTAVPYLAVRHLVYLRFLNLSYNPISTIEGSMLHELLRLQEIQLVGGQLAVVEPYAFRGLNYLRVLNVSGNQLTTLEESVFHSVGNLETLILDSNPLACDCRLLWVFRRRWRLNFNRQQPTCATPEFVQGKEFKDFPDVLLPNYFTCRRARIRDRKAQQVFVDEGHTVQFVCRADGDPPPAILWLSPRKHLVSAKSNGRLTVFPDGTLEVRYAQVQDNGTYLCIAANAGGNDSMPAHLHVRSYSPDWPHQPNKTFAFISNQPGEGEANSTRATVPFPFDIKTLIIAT


Target: T1, LINGO-1 ectodomain
Experiment: method not stated

Kd [pM]	Binder
≤ 20	Li81 (antibody, human IgG1, kappa, V domains shown, also called anti-LINGO-1 antibody; anti-Lingo-1) VH: EVQLLESGGGLVQPGGSLRLSCAASGFTFSAYEMKWVRQAPGKGLEWVSVIGPSGGFTFYADSVKGRFTISRDNSKNTLYLQMNSLRAEDTAVYYCATEGDNDAFDIWGQGTTVTVSS VL: DIQMTQSPATLSLSPGERATLSCRASQSVSSYLAWYQQKPGQAPRLLIYDASNRATGIPARFSGSGSGTDFTLTISSLEPEDFAVYYCQQRSNWPMYTFGQGTKLEIKR
≤ 50	Fab of Li81 (Fab, V domains shown, also called Li81 Fab) VH: EVQLLESGGGLVQPGGSLRLSCAASGFTFSAYEMKWVRQAPGKGLEWVSVIGPSGGFTFYADSVKGRFTISRDNSKNTLYLQMNSLRAEDTAVYYCATEGDNDAFDIWGQGTTVTVSS VL: DIQMTQSPATLSLSPGERATLSCRASQSVSSYLAWYQQKPGQAPRLLIYDASNRATGIPARFSGSGSGTDFTLTISSLEPEDFAVYYCQQRSNWPMYTFGQGTKLEIK

From US20220144945A1 (Biogen, published 2022)
